Assay results as given in US11407840B2, “Antibodies to M(H)DM2/4 and their use in diagnosing and treating cancer” (NomoCan Pharmaceuticals LLC, priority 2017, dated 2022).

B1: NMC-204: mouse monoclonal antibody, IgG3 isotype, binds NMC-P2 (SEQ ID NO:2); VH SEQ ID NO:38, VL SEQ ID NO:39 (antibody, V domains shown)
VH: EVQLQESGSVLVRPGASVKLSCKASGDTLSGSWMHWAMQRPGQGLEWIGEIHLNRGTTNYNEKFKGKATVTVDTSSSTAYVDLSSLTSEDSAVYYCARSPGFAYWGQGTLVTVSA
VL: GIVMTQAAPSVPVTPGESVSISCRSSKSLLHSNGNSYLYWFLQRPGQSPQLLIYRMSNLASGVPDRFSGSGSGTAFTLRITRVEAEDVGVYYCMQHLEYPFTFGSGTKLEIK
modifications: mAb NMC-204 Heavy Chain Variable Region; mAb NMC-204 Light Chain Variable Region
B2: NMC-103: mouse monoclonal antibody, IgG1 isotype, binds NMC-P1 (SEQ ID NO:1); VH SEQ ID NO:36, VL SEQ ID NO:37 (antibody, V domains shown)
VH: EVQLQESGGGLVQPGGSLRLSCTTSGFTFTHYYMSWVRQPPGKALEWLGFIRNKAKGYTAEYSASVKGRFTISRDNSQSILYLQMNTLRPEDSATYYCARDIGDNWGQGTLVTVSS
VL: DIVMTQAAFSNPVTLGTSASISCRSSKNLLHSNGITYLYWYLQRPGQSPQLLISRVSNLASGVPNRFSGSESGTDFTLRISRVEAEDVGVYFCAQLLELPYTFGGGTKLEIK
modifications: mAb NMC-103 Heavy Chain Variable Region; mAb NMC-103 Light Chain Variable Region

Assays:
[1] = target: NMC-P3 peptide (SEQ ID NO:3), amino acids 475-491 of HDM2 (Homo sapiens, UniProt Q00987); experiment: Peptide-ELISA, NMC-P3 peptide; assay type: binding; conditions: 5 μg/ml peptide dried on plate; OD 450 nm
Description: (§1) Peptide-ELISA Methodology: 5 μg/ml of NMC-P1, NMC-P2 or NMC-P3 peptide antigen was dried onto a 96-well ELISA plate overnight. Plates were then blocked with 5% BSA in 1× phosphate-buffered saline (PBS) (100 ? /well) for 2 hours at room temperature. Microplate wells were then washed 5 times with 300 ? of ice cold 1× PBS. Appropriate dilutions of monoclonal antibodies NMC-103, NMC-204 or NMC-303 in 1% bovine serum albumin (BSA) in PBS solution were then incubated with their corresponding peptides (NMC-P1, NMC-P2 or NMC-P3, respectively) at room temperature. After 2 hours, wells were washed 5 times with 300 ? ? ice-cold PBS/well and 100 ? secondary antibody (HRP-labeled Goat anti-Mouse F(ab′)2 H&L cross-adsorbed secondary antibody (HRP-GaM F(ab′)2), ThermoFisher, Cat. No. A24524) diluted 1:2500 to 1:5000 in PBS-1% BSA solution were added and the incubation continued at room temperature. After 1 hour, the wells were washed again 5 times with 200 ? of ice-cold PBS and 50 μiL of the TMB Substrate Solution (1-StepTM Ultra TMB-ELISA, ThermoFisher, Cat. No. 34028) were added to each well and color was allowed to develop for 30 minutes at room temperature. The reaction was stopped by addition of 50 μ ? ? of stop solution (ThermoFisher, Cat. No. SSO4) to each well and absorbance of each well was read immediately for optical density (OD) at 450 nm.

[2] = system: normal human peripheral blood mononuclear cells (PBMCs); experiment: Cell-ELISA, intact normal cells; assay type: binding; conditions: freshly isolated PBMCs; FIG. 6
Description: Cell-ELISA Methodology: 8,000-10,000 cells/well of a 96-well microplate were grown overnight. The next day, unbound cells were washed off with sterile 1× PBS. The cells in each well were fixed with freshly prepared 4% buffered paraformaldehyde (pH 7.2) for 1 hour followed by 3 washes with 1× PBS. The wells were then blocked with 5% BSA in PBS (100 ? /well) for 2 hours at room temperature. Microplate wells were then washed 5 times with 300 ? of ice cold 1× PBS. MAbs NMC-103, NMC-204 or NMC-303 at 1 μg/mL in 1% BSA/PBS were then incubated with various cancer or normal untransformed cells for 2 hours at room temperature. Wells were then washed with 300 ? of ice-cold 1× PBS for 5 times and corresponding secondary antibody HRP-GaM F(ab′)2 diluted 1:2500 or 1:5000 in PBS with 1% BSA were added at 100 ? /well for 1 hour at room temperature followed by washing 5 times with 300 ? of ice-cold 1× PBS. TMB Substrate Solution (1-StepTM Ultra TMB-ELISA, ThermoFisher, Cat. No. 34028) was then added at 50 ? ? to each microplate well and incubated at room temperature for 30 minutes. The reaction was stopped by addition of 50 μL, of stop solution (ThermoFisher, Cat. No. SSO4) to each well and absorbance of each well was measured at OD450 nm. The absorbance value of each experimental well was corrected for the absorbance value obtained from wells treated with isotype-identical mAbs included in each experiment. The results are thus expressed as “relative binding”.

[3] = system: mouse Lewis Lung cancer LL/2 cells (subcutaneous tumors); experiment: LL/2 syngeneic mouse model of lung cancer; assay type: in vivo, mouse (C57BL/6); conditions: day 21; 0.4 mg/kg i.p. 3 times a week for 3 weeks, started with tumor cell inoculation; FIG. 16
Description: Methodology used (Syngeneic Mouse Models of lung, colon and pancreatic cancer): To investigate the anti-tumor effects of HDM2-specific antibodies on lung, colon and pancreatic tumors in vivo, three well-known syngeneic mouse models of lung, colon and pancreatic cancer were used (Sharma et al, 1999, J. Immunol. 163 (9):5020-5028; McIntyre, 2015, Bioassays 37(8):909-920; Li, et al, 2015, Sci. Rep. 5:7856). Subcutaneous tumors were prepared by implanting either mouse Lewis Lung cancer LL/2 cells (2.5×10^5 cells/mouse), mouse colon cancer MC-38 cells (5×10^5 cells/mouse) or mouse pancreatic cancer Panc-2 cells (2×10^6 cells/mouse) in the right flanks of 8-week-old female C57BL/6 mice (n=6-7). The mice were returned to their respective cages after tumor implantation. From day 7 after tumor implantation, the tumor volumes were measured 2 times/week with a digital caliper. In the case of MC-38 and Panc-2 study, treatment started when the tumors reached an average of 70-80 mm^3. In the case of LL/2 study, tumor cell inoculation and treatment were initiated simultaneously. Mice were micro-chipped and registered following tumor implantation. […]

[4] = target: NMC-P1 peptide (SEQ ID NO:1) (Homo sapiens, UniProt Q00987); experiment: Peptide antigen binding competition ELISA; conditions: mAb pre-incubated with peptide 1 hour at room temperature; FIG. 1D
Description: as §1, with “nm. […]” for “nm.”

Molecule | binding to NMC-P3 peptide (peptide-ELISA) [1] | binding to intact normal human PBMCs, cell-ELISA [2] | tumor volume [3] [mm^3] | binding of mAb to NMC-P1 peptide on the plate after pre-incubation with NMC-P1 peptide [4] | binding of mAb to NMC-P1 peptide on the plate after pre-incubation with NMC-P2 or NMC-P3 [4]
B1 | did not bind | did not react | 1446 |  | 
B2 |  | virtually no binding |  | abolished the binding | did not affect the binding
